# Results taken from IntAct's records for PubMed 29039417.
# B1: Isoform 2 of Bardet-Biedl syndrome 7 protein (Homo sapiens), Q8IWZ6-2 (parent)
# chain: MDLILNRMDYLQVGVTSQKTMKLIPASRHRATQKVVIGDHDGVVMCFGMKKGEAAAVFKTLPGPKIARLELGGVINTPQEKIFIAAASEIRGFTKRGKQFLSFETNLTESIKAMHISGSDLFLSASYIYNHYCDCKDQHYYLSGDKINDVICLPVERLSRITPVLACQDRVLRVLQGSDVMYAVEVPGPPTVLALHNGNGGDSGEDLLFGTSDGKLALIQITTSKPVRKWEIQNEKKRGGILCIDSFDIVGDGVKDLLVGRDDGMVEVYSFDNANEPVLRFDQMLSESVTSIQGGCVGKDSYDEIVVSTYSGWVTGLTTEPIHKESGPGEELKINQEMQNKISSLRNELEHLQYKVLQERENYQQSSQSSKAKSAVPSFGINDKFTLNKDDASYSLILEVQTAIDNVLIQSDVPIDLLDVDKNSAVVSFSSCDSESNDNFLLATYRCQADTTRLELKIRSIEGQYGTLQAYVTPRIQPKTCQVRQYHIKPLSLHQRTHFIDHDRPMNTLTLTGQFSFAEVHSWVVFCLPEVPEKPPAGECVTFYFQNTFLDTQLESTYRKGEGVFKSDNISTISILKDVLSKEATKRKINLNISYEINEVSVKHTLKLIHPKLEYQLLLAKKVQLIDALKELQIHEGNTNFLIPEYHCILEEADHLQEEYKKQPAHLERLYG
# partner: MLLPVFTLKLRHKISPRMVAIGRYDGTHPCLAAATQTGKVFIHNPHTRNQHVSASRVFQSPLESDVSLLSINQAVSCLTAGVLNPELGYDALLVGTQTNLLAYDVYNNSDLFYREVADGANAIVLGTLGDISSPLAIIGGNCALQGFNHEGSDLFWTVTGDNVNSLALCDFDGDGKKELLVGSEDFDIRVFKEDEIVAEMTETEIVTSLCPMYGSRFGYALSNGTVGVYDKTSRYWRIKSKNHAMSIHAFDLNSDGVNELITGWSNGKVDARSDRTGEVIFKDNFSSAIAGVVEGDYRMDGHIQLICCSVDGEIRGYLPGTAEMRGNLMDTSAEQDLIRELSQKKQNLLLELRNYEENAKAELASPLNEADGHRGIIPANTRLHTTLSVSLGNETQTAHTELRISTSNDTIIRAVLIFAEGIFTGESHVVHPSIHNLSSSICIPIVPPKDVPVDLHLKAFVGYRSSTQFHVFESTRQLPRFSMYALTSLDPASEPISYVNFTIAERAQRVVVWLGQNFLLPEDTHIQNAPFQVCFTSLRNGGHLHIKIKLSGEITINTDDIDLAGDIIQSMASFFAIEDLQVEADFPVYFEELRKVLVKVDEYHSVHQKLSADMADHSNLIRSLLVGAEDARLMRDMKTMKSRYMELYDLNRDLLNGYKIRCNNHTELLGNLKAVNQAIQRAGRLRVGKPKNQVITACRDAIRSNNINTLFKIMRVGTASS
# Variants of: B1
# Details: with bbs2_human BBS2, Q9BXC9
row,Variant,effect of a mutation on the interaction
1,D450E,with no effect
2,I461A,with no effect
3,I461E,with no effect
4,I461K,with no effect
5,N439E,with no effect
6,N439K,with no effect
7,N439A,disrupting interaction strength
8,L441K,with no effect
9,L441A,with no effect
10,L441E,with no effect
11,Q410A,with no effect
12,Q410E,with no effect
13,Q410K,with no effect
14,S424E,with no effect
15,S424A,with no effect
16,S424K,with no effect
17,E455A,with no effect
18,E455K,disrupting interaction strength
19,C432K,with no effect
20,C432A,with no effect
21,C432E,with no effect
22,N437E,with no effect
23,N437A,with no effect

row,Variant,effect of a mutation on the interaction
1,N437K,with no effect
2,D438K,with no effect
3,D438A,with no effect
4,D438E,with no effect
5,D419K,with no effect
6,D419A,with no effect
7,D419E,with no effect
8,N406A,with no effect
9,N406E,with no effect
10,N406K,with no effect
11,L418E,with no effect
12,L418A,with no effect
13,L418K,with no effect
14,L456E,with no effect
15,L456A,with no effect
16,L456K,with no effect
17,S411A,with no effect
18,S411K,with no effect
19,S411E,with no effect
20,E462A,with no effect
21,E462K,with no effect
22,S430A,with no effect
